Tested on: steviol glycoside
Experiment: steviol glycoside bioconversion by E. coli expressing individual mutations of UGT SEQ ID NO: 13
Format: cell-based
Settings: fold improvement of % conversion vs parent UGT SEQ ID NO: 13; stevia leaf extract and glucose fed; 37° C., 48 hr
Description: A UGT enzyme referred to as MbUGT1,2 is described in U.S. Pat. No. 10,743,567, which is hereby incorporated by reference. An engineered version of MbUGT1,2 (SEQ ID NO: 13) is described in US 2020/0087692, which is hereby incorporated by reference in its entirety. The UGT enzyme of SEQ ID NO: 13 was further engineered to improve activity for steviol glycoside bioconversion. […] Fold improvement is with respect to % steviol glycoside conversion of the parent UGT enzyme (SEQ ID NO: 13). SEQ ID NO: 14 has the following mutations from SEQ ID NO: 13: G5N, F186T, V397S. Stevia leaf extract and glucose were fed to the bioconversion strains. Bioconversion took place at 37° C. for 48 hr. Data were quantified by reverse phase LC DAD to quantify conversion of steviol glycosides.
Fold improvement (FI) is with respect to % steviol glycoside conversion.

Molecule	FI %Stevioside→rebE	FI %rebA→rebD
A451T: mutation to UGT enzyme of SEQ ID NO: 13 (protein) MATKGSSGMSLAERFWLTLSRSSLVVGRSCVEFEPETVPLLSTLRGKPITFLGLMPPLHEGRREDGEDATVRWLDAQPAKSVVYVALGSEVPLGVEKVHELALGLELAGTRFLWALRKPTGVSDADLLPAGFEERTRGRGVVATRWVPQMSILAHAAVGAFLTHCGWNSTIEGLMFGHPLIMLPIFGDQGPNARLIEAKNAGLQVARNDGDGSFDREGVAAAIRAVAVEEESSKVFQAKAKKLQEIVADMACHERYIDGFIQQLRSYKDDSGYSSSYAAAAGMHVVICPWLAFGHLLPCLDLAQRLASRGHRVSFVSTPRNISRLPPVRPALAPLVAFVALPLPRVEGLPDGAESTNDVPHDRPDMVELHRRAFDGLAAPFSEFLGTACADWVIVDVFHHWAAAAALEHKVPCAMMLLGSAEMIASIADERLEHAETESPAAAGQGRPAATPTFEVARMKLIR	1.8	2.0
S20E: mutation to UGT enzyme of SEQ ID NO: 13 (protein) MATKGSSGMSLAERFWLTLERSSLVVGRSCVEFEPETVPLLSTLRGKPITFLGLMPPLHEGRREDGEDATVRWLDAQPAKSVVYVALGSEVPLGVEKVHELALGLELAGTRFLWALRKPTGVSDADLLPAGFEERTRGRGVVATRWVPQMSILAHAAVGAFLTHCGWNSTIEGLMFGHPLIMLPIFGDQGPNARLIEAKNAGLQVARNDGDGSFDREGVAAAIRAVAVEEESSKVFQAKAKKLQEIVADMACHERYIDGFIQQLRSYKDDSGYSSSYAAAAGMHVVICPWLAFGHLLPCLDLAQRLASRGHRVSFVSTPRNISRLPPVRPALAPLVAFVALPLPRVEGLPDGAESTNDVPHDRPDMVELHRRAFDGLAAPFSEFLGTACADWVIVDVFHHWAAAAALEHKVPCAMMLLGSAEMIASIADERLEHAETESPAAAGQGRPAAAPTFEVARMKLIR	1.2	1.1
M55L: mutation to UGT enzyme of SEQ ID NO: 13 (protein) MATKGSSGMSLAERFWLTLSRSSLVVGRSCVEFEPETVPLLSTLRGKPITFLGLLPPLHEGRREDGEDATVRWLDAQPAKSVVYVALGSEVPLGVEKVHELALGLELAGTRFLWALRKPTGVSDADLLPAGFEERTRGRGVVATRWVPQMSILAHAAVGAFLTHCGWNSTIEGLMFGHPLIMLPIFGDQGPNARLIEAKNAGLQVARNDGDGSFDREGVAAAIRAVAVEEESSKVFQAKAKKLQEIVADMACHERYIDGFIQQLRSYKDDSGYSSSYAAAAGMHVVICPWLAFGHLLPCLDLAQRLASRGHRVSFVSTPRNISRLPPVRPALAPLVAFVALPLPRVEGLPDGAESTNDVPHDRPDMVELHRRAFDGLAAPFSEFLGTACADWVIVDVFHHWAAAAALEHKVPCAMMLLGSAEMIASIADERLEHAETESPAAAGQGRPAAAPTFEVARMKLIR	1.1	1.0
V456M: mutation to UGT enzyme of SEQ ID NO: 13 (protein) MATKGSSGMSLAERFWLTLSRSSLVVGRSCVEFEPETVPLLSTLRGKPITFLGLMPPLHEGRREDGEDATVRWLDAQPAKSVVYVALGSEVPLGVEKVHELALGLELAGTRFLWALRKPTGVSDADLLPAGFEERTRGRGVVATRWVPQMSILAHAAVGAFLTHCGWNSTIEGLMFGHPLIMLPIFGDQGPNARLIEAKNAGLQVARNDGDGSFDREGVAAAIRAVAVEEESSKVFQAKAKKLQEIVADMACHERYIDGFIQQLRSYKDDSGYSSSYAAAAGMHVVICPWLAFGHLLPCLDLAQRLASRGHRVSFVSTPRNISRLPPVRPALAPLVAFVALPLPRVEGLPDGAESTNDVPHDRPDMVELHRRAFDGLAAPFSEFLGTACADWVIVDVFHHWAAAAALEHKVPCAMMLLGSAEMIASIADERLEHAETESPAAAGQGRPAAAPTFEMARMKLIR	1.5	1.5
T453K: mutation to UGT enzyme of SEQ ID NO: 13 (protein) MATKGSSGMSLAERFWLTLSRSSLVVGRSCVEFEPETVPLLSTLRGKPITFLGLMPPLHEGRREDGEDATVRWLDAQPAKSVVYVALGSEVPLGVEKVHELALGLELAGTRFLWALRKPTGVSDADLLPAGFEERTRGRGVVATRWVPQMSILAHAAVGAFLTHCGWNSTIEGLMFGHPLIMLPIFGDQGPNARLIEAKNAGLQVARNDGDGSFDREGVAAAIRAVAVEEESSKVFQAKAKKLQEIVADMACHERYIDGFIQQLRSYKDDSGYSSSYAAAAGMHVVICPWLAFGHLLPCLDLAQRLASRGHRVSFVSTPRNISRLPPVRPALAPLVAFVALPLPRVEGLPDGAESTNDVPHDRPDMVELHRRAFDGLAAPFSEFLGTACADWVIVDVFHHWAAAAALEHKVPCAMMLLGSAEMIASIADERLEHAETESPAAAGQGRPAAAPKFEVARMKLIR	1.4	1.6
V456W: mutation to UGT enzyme of SEQ ID NO: 13 (protein) MATKGSSGMSLAERFWLTLSRSSLVVGRSCVEFEPETVPLLSTLRGKPITFLGLMPPLHEGRREDGEDATVRWLDAQPAKSVVYVALGSEVPLGVEKVHELALGLELAGTRFLWALRKPTGVSDADLLPAGFEERTRGRGVVATRWVPQMSILAHAAVGAFLTHCGWNSTIEGLMFGHPLIMLPIFGDQGPNARLIEAKNAGLQVARNDGDGSFDREGVAAAIRAVAVEEESSKVFQAKAKKLQEIVADMACHERYIDGFIQQLRSYKDDSGYSSSYAAAAGMHVVICPWLAFGHLLPCLDLAQRLASRGHRVSFVSTPRNISRLPPVRPALAPLVAFVALPLPRVEGLPDGAESTNDVPHDRPDMVELHRRAFDGLAAPFSEFLGTACADWVIVDVFHHWAAAAALEHKVPCAMMLLGSAEMIASIADERLEHAETESPAAAGQGRPAAAPTFEWARMKLIR	1.2	1.2
A451L: mutation to UGT enzyme of SEQ ID NO: 13 (protein) MATKGSSGMSLAERFWLTLSRSSLVVGRSCVEFEPETVPLLSTLRGKPITFLGLMPPLHEGRREDGEDATVRWLDAQPAKSVVYVALGSEVPLGVEKVHELALGLELAGTRFLWALRKPTGVSDADLLPAGFEERTRGRGVVATRWVPQMSILAHAAVGAFLTHCGWNSTIEGLMFGHPLIMLPIFGDQGPNARLIEAKNAGLQVARNDGDGSFDREGVAAAIRAVAVEEESSKVFQAKAKKLQEIVADMACHERYIDGFIQQLRSYKDDSGYSSSYAAAAGMHVVICPWLAFGHLLPCLDLAQRLASRGHRVSFVSTPRNISRLPPVRPALAPLVAFVALPLPRVEGLPDGAESTNDVPHDRPDMVELHRRAFDGLAAPFSEFLGTACADWVIVDVFHHWAAAAALEHKVPCAMMLLGSAEMIASIADERLEHAETESPAAAGQGRPAALPTFEVARMKLIR	1.4	1.5
G5N: mutation to UGT enzyme of SEQ ID NO: 13 (protein) MATKNSSGMSLAERFWLTLSRSSLVVGRSCVEFEPETVPLLSTLRGKPITFLGLMPPLHEGRREDGEDATVRWLDAQPAKSVVYVALGSEVPLGVEKVHELALGLELAGTRFLWALRKPTGVSDADLLPAGFEERTRGRGVVATRWVPQMSILAHAAVGAFLTHCGWNSTIEGLMFGHPLIMLPIFGDQGPNARLIEAKNAGLQVARNDGDGSFDREGVAAAIRAVAVEEESSKVFQAKAKKLQEIVADMACHERYIDGFIQQLRSYKDDSGYSSSYAAAAGMHVVICPWLAFGHLLPCLDLAQRLASRGHRVSFVSTPRNISRLPPVRPALAPLVAFVALPLPRVEGLPDGAESTNDVPHDRPDMVELHRRAFDGLAAPFSEFLGTACADWVIVDVFHHWAAAAALEHKVPCAMMLLGSAEMIASIADERLEHAETESPAAAGQGRPAAAPTFEVARMKLIR	1.5	1.5
T453R: mutation to UGT enzyme of SEQ ID NO: 13 (protein) MATKGSSGMSLAERFWLTLSRSSLVVGRSCVEFEPETVPLLSTLRGKPITFLGLMPPLHEGRREDGEDATVRWLDAQPAKSVVYVALGSEVPLGVEKVHELALGLELAGTRFLWALRKPTGVSDADLLPAGFEERTRGRGVVATRWVPQMSILAHAAVGAFLTHCGWNSTIEGLMFGHPLIMLPIFGDQGPNARLIEAKNAGLQVARNDGDGSFDREGVAAAIRAVAVEEESSKVFQAKAKKLQEIVADMACHERYIDGFIQQLRSYKDDSGYSSSYAAAAGMHVVICPWLAFGHLLPCLDLAQRLASRGHRVSFVSTPRNISRLPPVRPALAPLVAFVALPLPRVEGLPDGAESTNDVPHDRPDMVELHRRAFDGLAAPFSEFLGTACADWVIVDVFHHWAAAAALEHKVPCAMMLLGSAEMIASIADERLEHAETESPAAAGQGRPAAAPRFEVARMKLIR	1.4	1.6
V456S: mutation to UGT enzyme of SEQ ID NO: 13 (protein) MATKGSSGMSLAERFWLTLSRSSLVVGRSCVEFEPETVPLLSTLRGKPITFLGLMPPLHEGRREDGEDATVRWLDAQPAKSVVYVALGSEVPLGVEKVHELALGLELAGTRFLWALRKPTGVSDADLLPAGFEERTRGRGVVATRWVPQMSILAHAAVGAFLTHCGWNSTIEGLMFGHPLIMLPIFGDQGPNARLIEAKNAGLQVARNDGDGSFDREGVAAAIRAVAVEEESSKVFQAKAKKLQEIVADMACHERYIDGFIQQLRSYKDDSGYSSSYAAAAGMHVVICPWLAFGHLLPCLDLAQRLASRGHRVSFVSTPRNISRLPPVRPALAPLVAFVALPLPRVEGLPDGAESTNDVPHDRPDMVELHRRAFDGLAAPFSEFLGTACADWVIVDVFHHWAAAAALEHKVPCAMMLLGSAEMIASIADERLEHAETESPAAAGQGRPAAAPTFESARMKLIR	1.5	1.6

Source: US20260242839A1, “GLYCOSIDE PRODUCT BIOSYNTHESIS AND RECOVERY” (Manus Bio Inc., priority 2023, published 2026)
